Results reported in PMC5574023.

Biological target: platelet receptor GPIIbIIIa (αIIbβ3) on human platelets, P08514;P05106
Experiment: platelet adhesion to immobilized protein (phosphatase assay)
Conditions: read off a plot

Substance	response (Absorbance (405 nm)) (parent: est. 0.48)	response (Absorbance (405 nm)) (parent: est. 0.88)	response (Absorbance (405 nm)) (TRAP-activated gel-filtered platelets, 2 × 10^7 per well, 10 μg protein per well, 37°C, 45 min, static, parent: est. 0.88)	response (Absorbance (405 nm)) (non-activated gel-filtered platelets, 2 × 10^7 per well, 10 μg protein per well, 37°C, 45 min, static, parent: est. 0.48)
recombinant PadA-F2 region fragment (from UniProt A8AZP4) N214A; G215A; R216A	0.28	0.72	–	–
recombinant PadA-F2 region fragment (from UniProt A8AZP4) R416A; G417A; T418A	0.21	0.8	–	–
recombinant PadA-F2 region fragment (from UniProt A8AZP4) G486A; D487A	0.27	0.87	–	–
recombinant PadA-F2 region fragment (from UniProt A8AZP4) N214A; G215A; R216A; R416A; G417A; T418A; G486A; D487A	–	–	0.2	0.49
recombinant PadA-F2 region fragment (from UniProt A8AZP4) R416A; G417A; T418A; G486A; D487A	0.71	0.44	–	–
